Assay results published in the supplement of paper PMC7877785.
± gives the uncertainty stated by the source.

Test: self-splicing fitness, log relative to wild type (ln ratio); higher = more splicing; Tetrahymena group I intron in knt gene, E. coli kanamycin selection, DiMSum; sequences stand for … in CUCUCU…GGAGGGAAAAGUUAUCAGGCAUGCACCUGGUAGCUAGUCUUUAAACCAAUAGAUUGCAUCGGUUUAAAAGGCAAGACCGUCAAAUUGCGGGAAAGGGGUCAACAGCCGUUCAGUACCAAGUCUCAGGGGAAACUUUGAGAUGGCCUUGCAAAGGGUAUGGUAAUAAGCUGACGGACAUGGUCCUAACCACGCAGCCAAGUCCUAAGUCAACAGAUCUUCUGUUGAUAUGGAUGCAGUUCACAGACUAAAUGUCGGUCGGGGAAGAUGUAUUCUUCUCAUAAGAUAUAGUCGGACCUCUCCUUAAUGGGAGCUAGCGGAUGAAGUGAUGCAACACUGGAGCCGCUGGGAACUAAUUUGUAUGCGAAAGUAUAUUGAUUAGUUUUGGAGUACUCGUGGUCG
In short: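 The eight P1ex-region nucleotides of an intron in the knt kanamycin-resistance gene on pET-22b(+) were all randomised and the library put into E. coli BL21(DE3). Six replicate transformations were grown overnight at 37°C or 30°C on LB agar with or without 25 μg/mL kanamycin, together with 100 μg/mL carbenicillin, 50 μM IPTG and 0.2% rhamnose. Colonies were pooled and amplicon-sequenced on an Illumina HiSeq 2500. Fitness from DiMSum is the error-weighted combination of wild-type-normalised replicate fold changes, kanamycin over none.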

Sequence | self-splicing fitness (ln) (30 °C) | self-splicing fitness (ln) (37 °C)
CUUUAGCAAUAUUACGAGAG | -4.26 ± 0.34 | -2.03 ± 0.28
CUUUAGCAAUAUUACGAUAA | -2.76 ± 0.15 | -2.64 ± 0.28
CUUUAGCAAUAUUACGAUGA | -3.2 ± 0.25 | -2.01 ± 0.18
CUUUAGCAAUAUUACGAUGC | -2.95 ± 0.24 | –
CUUUAGCAAUAUUACGCACU | -3.69 ± 0.44 | -1.83 ± 0.19
CUUUAGCAAUAUUACGCCCA | -2.92 ± 0.48 | -1.54 ± 0.38
CUUUAGCAAUAUUACGCUUG | -2.98 ± 0.16 | -2.32 ± 0.17
CUUUAGCAAUAUUACGGCAU | -3.42 ± 0.39 | -2.9 ± 0.4
CUUUAGCAAUAUUACGGCCC | -1.71 ± 0.47 | –
CUUUAGCAAUAUUACGGCGG | -0.763 ± 0.093 | -0.528 ± 0.12
CUUUAGCAAUAUUACGGCUC | – | -2.16 ± 0.46
CUUUAGCAAUAUUACGGCUG | -1.48 ± 0.14 | -0.483 ± 0.14
CUUUAGCAAUAUUACGGGAA | -2.28 ± 0.22 | -1.58 ± 0.3
CUUUAGCAAUAUUACGGGCG | -0.935 ± 0.12 | 0.00294 ± 0.15
CUUUAGCAAUAUUACGGGGA | -2.88 ± 0.19 | -1.38 ± 0.17
CUUUAGCAAUAUUACGUACU | -2.22 ± 0.23 | -2.82 ± 0.34
CUUUAGCAAUAUUACGUGCU | – | -2.59 ± 0.41
CUUUAGCAAUAUUACGUUGG | -3.1 ± 0.24 | -1.86 ± 0.27
GAAAAGCAAUAUUACGAAAA | -2.25 ± 0.22 | -2.42 ± 0.17
GAAAAGCAAUAUUACGAACA | -0.893 ± 0.1 | 0.0828 ± 0.12
GAAAAGCAAUAUUACGAACC | -0.664 ± 0.14 | -0.705 ± 0.18
GAAAAGCAAUAUUACGACAA | -0.627 ± 0.084 | -0.496 ± 0.096

Sequence | self-splicing fitness (ln) (30 °C) | self-splicing fitness (ln) (37 °C)
GAAAAGCAAUAUUACGAGCC | -1.38 ± 0.19 | -0.409 ± 0.18
GAAAAGCAAUAUUACGAGCG | -0.699 ± 0.14 | -0.579 ± 0.15
GAAAAGCAAUAUUACGAGGA | -2.03 ± 0.15 | -1.78 ± 0.16
GAAAAGCAAUAUUACGAGGG | – | -1.77 ± 0.25
GAAAAGCAAUAUUACGAGUG | -1.08 ± 0.073 | -0.813 ± 0.094
GAAAAGCAAUAUUACGAUCA | -0.39 ± 0.067 | -0.234 ± 0.072
GAAAAGCAAUAUUACGAUGU | -1.07 ± 0.084 | -0.404 ± 0.096
GAAAAGCAAUAUUACGCAUC | -3.17 ± 0.17 | -2.78 ± 0.18
GAAAAGCAAUAUUACGCCAA | -2.24 ± 0.12 | -1.36 ± 0.12
GAAAAGCAAUAUUACGCCUU | -0.813 ± 0.11 | -0.558 ± 0.13
GAAAAGCAAUAUUACGCUAA | -2.24 ± 0.16 | -1.1 ± 0.13
GAAAAGCAAUAUUACGGCAU | -0.258 ± 0.066 | 0.329 ± 0.083
GAAAAGCAAUAUUACGGUUU | -0.79 ± 0.057 | -0.332 ± 0.076
GAAAAGCAAUAUUACGUAAU | -1.78 ± 0.066 | -1.47 ± 0.087
GAAAAGCAAUAUUACGUACU | -0.864 ± 0.069 | -0.0522 ± 0.1
GAAAAGCAAUAUUACGUCCU | -0.216 ± 0.089 | 0.514 ± 0.12
GAAAAGCAAUAUUACGUGCC | -1.69 ± 0.19 | -0.25 ± 0.22
GAAAAGCAAUAUUACGUGCG | -1.44 ± 0.095 | 0.264 ± 0.12
GAAAAGCAAUAUUACGUUAU | -1.67 ± 0.07 | -0.868 ± 0.088
GAAAAGCAAUAUUACGUUGU | -4.51 ± 0.2 | -2.22 ± 0.12
GAACAGCAAUAUUACGAAAA | -1.77 ± 0.14 | -1.65 ± 0.12
